# According to PMC5645467, “Three-dimensional context rather than NLS amino acid sequence determines importin α subtype specificity for RCC1” (Nature Communications, 2017):
# T1: GST-RCC1 (full-length human RCC1, wild type) (human, UniProt P18754 1-421)
# T1 construct: human RCC1, predominant isoform RCC1α, synthetic gene (GenScript); β-propeller printed as residues 30–421; Used in the syringe for ITC (methods say GST-RCC1); also called full length GST-RCC1; WT GST-RCC1; source: E. coli BL21(DE3) AI or BL21(DE3), pGEX-6P, glutathione resin; not shown: GST, N-terminal, kept
# T1 sequence (looked up): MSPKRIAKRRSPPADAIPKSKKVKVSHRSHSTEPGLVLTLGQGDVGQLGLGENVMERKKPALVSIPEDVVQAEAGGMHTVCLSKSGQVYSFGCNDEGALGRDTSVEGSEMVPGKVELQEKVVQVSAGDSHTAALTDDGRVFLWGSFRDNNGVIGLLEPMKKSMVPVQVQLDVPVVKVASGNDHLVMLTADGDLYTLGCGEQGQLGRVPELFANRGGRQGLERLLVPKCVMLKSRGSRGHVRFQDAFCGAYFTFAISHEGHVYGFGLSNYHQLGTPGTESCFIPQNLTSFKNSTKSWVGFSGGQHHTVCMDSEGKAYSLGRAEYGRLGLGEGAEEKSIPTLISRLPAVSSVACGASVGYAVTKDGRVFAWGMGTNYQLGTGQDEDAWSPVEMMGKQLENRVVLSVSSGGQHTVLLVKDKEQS
# T2: GST-ΔIBB-importin α3 (human, UniProt O00629 59-521)
# T2 construct: human importin α3 lacking the N-terminal IBB domain; also called GST-tagged importin α3 (lacking the IBB); source: E. coli BL21(DE3) AI or BL21(DE3), pGEX-6P, purified (glutathione resin); not shown: GST, N-terminal, kept
# T2 sequence (looked up): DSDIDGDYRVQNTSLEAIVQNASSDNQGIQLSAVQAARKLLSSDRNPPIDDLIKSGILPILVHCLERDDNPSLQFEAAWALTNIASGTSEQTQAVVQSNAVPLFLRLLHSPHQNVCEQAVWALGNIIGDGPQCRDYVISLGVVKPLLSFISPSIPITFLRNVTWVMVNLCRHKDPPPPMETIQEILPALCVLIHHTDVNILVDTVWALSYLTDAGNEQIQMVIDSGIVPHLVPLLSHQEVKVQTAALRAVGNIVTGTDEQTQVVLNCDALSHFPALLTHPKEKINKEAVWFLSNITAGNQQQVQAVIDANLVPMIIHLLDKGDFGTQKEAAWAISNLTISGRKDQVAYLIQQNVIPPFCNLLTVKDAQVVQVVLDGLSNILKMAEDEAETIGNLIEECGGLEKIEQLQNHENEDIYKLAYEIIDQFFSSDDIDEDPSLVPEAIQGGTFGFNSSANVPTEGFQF
# T3: ΔIBB-Kap60 (co-expressed with yeast GST-RCC1) (Saccharomyces cerevisiae, UniProt Q02821 66-542)
# T3 construct: yeast importin α Kap60 lacking the N-terminal IBB domain; the methods say ΔIBB-Kap60; source: E. coli BL21-AI, co-expressed with yeast GST-RCC1, purified as complex (glutathione beads, PreScission, SEC)
# T3 sequence (looked up): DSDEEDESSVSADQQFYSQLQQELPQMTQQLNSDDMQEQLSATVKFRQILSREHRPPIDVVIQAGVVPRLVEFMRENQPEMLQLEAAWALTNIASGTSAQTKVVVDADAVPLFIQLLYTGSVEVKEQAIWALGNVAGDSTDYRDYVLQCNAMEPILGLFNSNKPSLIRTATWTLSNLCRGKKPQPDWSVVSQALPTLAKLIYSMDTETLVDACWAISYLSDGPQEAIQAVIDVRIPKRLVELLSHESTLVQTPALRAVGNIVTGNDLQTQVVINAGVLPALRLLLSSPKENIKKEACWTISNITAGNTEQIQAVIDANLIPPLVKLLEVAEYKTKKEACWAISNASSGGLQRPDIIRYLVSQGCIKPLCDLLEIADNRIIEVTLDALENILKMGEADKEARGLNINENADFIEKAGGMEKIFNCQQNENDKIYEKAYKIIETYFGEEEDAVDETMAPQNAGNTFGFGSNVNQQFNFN
# Experiments:
# Conditions in all cases: both partners purified
# [1] = target: T1, GST-RCC1 (full-length human RCC1, wild …); experiment: ITC; nano-ITC, 20 °C; GST-RCC1 (300 µM) injected in 2.0 µl increments into 195 µl of ΔIBB-importin α3 or α1 (100 µM); 20 mM Tris-HCl pH 8.0, 150 mM NaCl, 5 mM BME, 0.1 mM PMSF; single set of binding sites model; triplicate
# GST-ΔIBB-importin α3 = target: T2, GST-ΔIBB-importin α3; experiment: pull-down; purified GST-ΔIBB-importin α3 or GST-ΔIBB-Kap60 (1 µM) pre-incubated with RCC1/yRCC1 (0.75 µM) ~60 min at 4 °C, then bound to glutathione beads, washed three times, eluted with 25 mM reduced glutathione; SDS-PAGE, Coomassie, quantified in triplicate, WT = 100%
# [2] = target: T3, ΔIBB-Kap60 (co-expressed with yeast …); experiment: SEC-SAXS; Kap60:yRCC1 complex at 5.0 mg ml^-1 on Superose 12 10/300 GL; 20 mM Tris-HCl pH 7.5, 150 mM NaCl, 5% glycerol, 3 mM BME; frames 710–750
Binder,reduction of binding relative to WT RCC1 (GST-ΔIBB-importin α3),other results
"ΔIBB-importin α3 (as used for ITC) (domain or fragment, Limits not given; taken from the ΔIBB-importin α3 entity of PDB 4UAE (Met + 420 residues, starting VQNTS), which fits the expected complex MW of ~91.2 kDa. A construct running to 521 is possible.) not shown",,Kd [1]: 620 ± 100 nM
"RCC1 (human, wild type, free protein) (natural protein, UniProt P18754 1-421, looked up, human RCC1, predominant isoform RCC1α, synthetic gene; also called free RCC1; WT RCC1; source: E. coli BL21(DE3) AI or BL21(DE3), purified) MSPKRIAKRRSPPADAIPKSKKVKVSHRSHSTEPGLVLTLGQGDVGQLGLGENVMERKKPALVSIPEDVVQAEAGGMHTVCLSKSGQVYSFGCNDEGALGRDTSVEGSEMVPGKVELQEKVVQVSAGDSHTAALTDDGRVFLWGSFRDNNGVIGLLEPMKKSMVPVQVQLDVPVVKVASGNDHLVMLTADGDLYTLGCGEQGQLGRVPELFANRGGRQGLERLLVPKCVMLKSRGSRGHVRFQDAFCGAYFTFAISHEGHVYGFGLSNYHQLGTPGTESCFIPQNLTSFKNSTKSWVGFSGGQHHTVCMDSEGKAYSLGRAEYGRLGLGEGAEEKSIPTLISRLPAVSSVACGASVGYAVTKDGRVFAWGMGTNYQLGTGQDEDAWSPVEMMGKQLENRVVLSVSSGGQHTVLLVKDKEQS",,stoichiometry N (GST-ΔIBB-importin α3): 1
"RCC1-R9A (natural protein, human, UniProt P18754 1-421, looked up, human RCC1 (RCC1α) with R9A; also called P2′ mutant; source: E. coli BL21(DE3) AI or BL21(DE3), purified) MSPKRIAKARSPPADAIPKSKKVKVSHRSHSTEPGLVLTLGQGDVGQLGLGENVMERKKPALVSIPEDVVQAEAGGMHTVCLSKSGQVYSFGCNDEGALGRDTSVEGSEMVPGKVELQEKVVQVSAGDSHTAALTDDGRVFLWGSFRDNNGVIGLLEPMKKSMVPVQVQLDVPVVKVASGNDHLVMLTADGDLYTLGCGEQGQLGRVPELFANRGGRQGLERLLVPKCVMLKSRGSRGHVRFQDAFCGAYFTFAISHEGHVYGFGLSNYHQLGTPGTESCFIPQNLTSFKNSTKSWVGFSGGQHHTVCMDSEGKAYSLGRAEYGRLGLGEGAEEKSIPTLISRLPAVSSVACGASVGYAVTKDGRVFAWGMGTNYQLGTGQDEDAWSPVEMMGKQLENRVVLSVSSGGQHTVLLVKDKEQS",25%,
"RCC1-K21A (natural protein, human, UniProt P18754 1-421, looked up, human RCC1 (RCC1α) with K21A; also called P2 mutant; source: E. coli BL21(DE3) AI or BL21(DE3), purified) MSPKRIAKRRSPPADAIPKSAKVKVSHRSHSTEPGLVLTLGQGDVGQLGLGENVMERKKPALVSIPEDVVQAEAGGMHTVCLSKSGQVYSFGCNDEGALGRDTSVEGSEMVPGKVELQEKVVQVSAGDSHTAALTDDGRVFLWGSFRDNNGVIGLLEPMKKSMVPVQVQLDVPVVKVASGNDHLVMLTADGDLYTLGCGEQGQLGRVPELFANRGGRQGLERLLVPKCVMLKSRGSRGHVRFQDAFCGAYFTFAISHEGHVYGFGLSNYHQLGTPGTESCFIPQNLTSFKNSTKSWVGFSGGQHHTVCMDSEGKAYSLGRAEYGRLGLGEGAEEKSIPTLISRLPAVSSVACGASVGYAVTKDGRVFAWGMGTNYQLGTGQDEDAWSPVEMMGKQLENRVVLSVSSGGQHTVLLVKDKEQS",25%,
"RCC1-R9A/K21A (natural protein, human, UniProt P18754 1-421, looked up, human RCC1 (RCC1α) with R9A and K21A; also called P2/P2′ double mutant; source: E. coli BL21(DE3) AI or BL21(DE3), purified) MSPKRIAKARSPPADAIPKSAKVKVSHRSHSTEPGLVLTLGQGDVGQLGLGENVMERKKPALVSIPEDVVQAEAGGMHTVCLSKSGQVYSFGCNDEGALGRDTSVEGSEMVPGKVELQEKVVQVSAGDSHTAALTDDGRVFLWGSFRDNNGVIGLLEPMKKSMVPVQVQLDVPVVKVASGNDHLVMLTADGDLYTLGCGEQGQLGRVPELFANRGGRQGLERLLVPKCVMLKSRGSRGHVRFQDAFCGAYFTFAISHEGHVYGFGLSNYHQLGTPGTESCFIPQNLTSFKNSTKSWVGFSGGQHHTVCMDSEGKAYSLGRAEYGRLGLGEGAEEKSIPTLISRLPAVSSVACGASVGYAVTKDGRVFAWGMGTNYQLGTGQDEDAWSPVEMMGKQLENRVVLSVSSGGQHTVLLVKDKEQS",~85%,
"RCC1-S11E (natural protein, human, UniProt P18754 1-421, looked up, human RCC1 (RCC1α) with the phospho-mimetic S11E; also called phospho-mimetic RCC1-S11E; source: E. coli BL21(DE3) AI or BL21(DE3), purified) MSPKRIAKRREPPADAIPKSKKVKVSHRSHSTEPGLVLTLGQGDVGQLGLGENVMERKKPALVSIPEDVVQAEAGGMHTVCLSKSGQVYSFGCNDEGALGRDTSVEGSEMVPGKVELQEKVVQVSAGDSHTAALTDDGRVFLWGSFRDNNGVIGLLEPMKKSMVPVQVQLDVPVVKVASGNDHLVMLTADGDLYTLGCGEQGQLGRVPELFANRGGRQGLERLLVPKCVMLKSRGSRGHVRFQDAFCGAYFTFAISHEGHVYGFGLSNYHQLGTPGTESCFIPQNLTSFKNSTKSWVGFSGGQHHTVCMDSEGKAYSLGRAEYGRLGLGEGAEEKSIPTLISRLPAVSSVACGASVGYAVTKDGRVFAWGMGTNYQLGTGQDEDAWSPVEMMGKQLENRVVLSVSSGGQHTVLLVKDKEQS",~10%,
"yRCC1 (yeast RCC1, cleaved from GST, in the purified Kap60:yRCC1 complex) (natural protein, Saccharomyces cerevisiae (strain S288C), Saccharomyces cerevisiae RCC1 homolog Prp20p, amplified from a genomic library of strain S288C; also called Prp20p; source: E. coli BL21-AI, co-expressed with ΔIBB-Kap60, cleaved off glutathione beads with PreScission Protease, SEC; not shown: GST, N-terminal, cleaved) MVKRTVATNGDASGAHRAKKMSKTHASHIINAQEDYKHMYLSVQPLDIFCWGTGSMCELGLGPLAKNKEVKRPRLNPFLPRDEAKIISFAVGGMHTLALDEESNVWSWGCNDVGALGRDTSNAKEQLKDMDADDSSDDEDGDLNELESTPAKIPRESFPPLAEGHKVVQLAATDNMSCALFSNGEVYAWGTFRCNEGILGFYQDKIKIQKTPWKVPTFSKYNIVQLAPGKDHILFLDEEGMVFAWGNGQQNQLGRKVMERFRLKTLDPRPFGLRHVKYIASGENHCFALTKDNKLVSWGLNQFGQCGVSEDVEDGALVTKPKRLALPDNVVIRSIAAGEHHSLILSQDGDLYSCGRLDMFEVGIPKDNLPEYTYKDVHGKARAVPLPTKLNNVPKFKSVAAGSHHSVAVAQNGIAYSWGFGETYAVGLGPFEDDTEVPTRIKNTATQDHNIILVGCGGQFSVSGGVKLSDEDAEKRADEMDD",,stoichiometry N [2]: 1

# The next lines start with results.
reduction of binding relative to WT RCC1 (GST-ΔIBB-importin α3),Binder,other results
~10%,"Δ5-RCC1 (domain or fragment, human, UniProt P18754 6-421, looked up, human RCC1 (RCC1α) with the first five residues deleted; source: E. coli BL21(DE3) AI or BL21(DE3), purified) IAKRRSPPADAIPKSKKVKVSHRSHSTEPGLVLTLGQGDVGQLGLGENVMERKKPALVSIPEDVVQAEAGGMHTVCLSKSGQVYSFGCNDEGALGRDTSVEGSEMVPGKVELQEKVVQVSAGDSHTAALTDDGRVFLWGSFRDNNGVIGLLEPMKKSMVPVQVQLDVPVVKVASGNDHLVMLTADGDLYTLGCGEQGQLGRVPELFANRGGRQGLERLLVPKCVMLKSRGSRGHVRFQDAFCGAYFTFAISHEGHVYGFGLSNYHQLGTPGTESCFIPQNLTSFKNSTKSWVGFSGGQHHTVCMDSEGKAYSLGRAEYGRLGLGEGAEEKSIPTLISRLPAVSSVACGASVGYAVTKDGRVFAWGMGTNYQLGTGQDEDAWSPVEMMGKQLENRVVLSVSSGGQHTVLLVKDKEQS",
~60%,"Δ10-RCC1 (domain or fragment, human, UniProt P18754 11-421, looked up, human RCC1 (RCC1α) lacking the entire minor NLS box; source: E. coli BL21(DE3) AI or BL21(DE3), purified) SPPADAIPKSKKVKVSHRSHSTEPGLVLTLGQGDVGQLGLGENVMERKKPALVSIPEDVVQAEAGGMHTVCLSKSGQVYSFGCNDEGALGRDTSVEGSEMVPGKVELQEKVVQVSAGDSHTAALTDDGRVFLWGSFRDNNGVIGLLEPMKKSMVPVQVQLDVPVVKVASGNDHLVMLTADGDLYTLGCGEQGQLGRVPELFANRGGRQGLERLLVPKCVMLKSRGSRGHVRFQDAFCGAYFTFAISHEGHVYGFGLSNYHQLGTPGTESCFIPQNLTSFKNSTKSWVGFSGGQHHTVCMDSEGKAYSLGRAEYGRLGLGEGAEEKSIPTLISRLPAVSSVACGASVGYAVTKDGRVFAWGMGTNYQLGTGQDEDAWSPVEMMGKQLENRVVLSVSSGGQHTVLLVKDKEQS",
